Test results reported in patent US20250304713A1, “COMBINATION IMMUNOTHERAPY COMPOSITIONS AND METHODS OF USE THEREOF” (THE PENN STATE RESEARCH FOUNDATION, priority 2022, published 2025).

B1: dinutuximab (antibody, chains of the INN, looked up, V domains shown)
VH: EVQLLQSGPELEKPGASVMISCKASGSSFTGYNMNWVRQNIGKSLEWIGAIDPYYGGTSYNQKFKGRATLTVDKSSSTAYMHLKSLTSEDSAVYYCVSGMEYWGQGTSVTVSS
VL: EIVMTQSPATLSVSPGERATLSCRSSQSLVHRNGNTYLHWYLQKPGQSPKLLIHKVSNRFSGVPDRFSGSGSGTDFTLKISRVEAEDLGVYFCSQSTHVPPLTFGAGTKLELK
notes: chimeric monoclonal antibody against the disialoganglioside GD2

Columns and labels:
[1] = system: 9464D-GD2 cells; experiment: Cell viability, CellTiter-Glo; type: cell-based, mouse; conditions: 0.1 μM tipifarnib; 24, 48, 72 h
Protocol: 9464D-GD2 cells were seeded in a white, opaque 96-well plate. The following day, cells were treated with increasing doses of tipifarnib, and cell viability was measured at 24, 48 and 72 hours post-treatment using the CellTiter-Glo® Luminescent Cell Viability Assay (Promega, G7573) according to manufacturer's instructions. Microplate luminescence was measured using a CLARIOstar (BMG Labtech) plate reader. All data were normalized to non-treated controls. 9464D cells or 9464D crRab27a cells were plated at a density of 5000 cells/well in a 96-well plate and monitored for confluence using the Incucyte S3 μLive Cell Imaging System (Sartorius). The percent cell confluence was quantified using Incucyte Basic Cell Analysis package (Sartorius).

[2] = system: 9464D-GD2 tumors; experiment: 9464D-GD2 syngeneic subcutaneous neuroblastoma model, tumor growth, volume and weight; type: in vivo, mouse
Protocol: (§1) All animal studies were performed according to guidelines established by the Institutional Animal Care and Use Committee (IACUC) at the Penn State College of Medicine (Hershey, PA). An immunocompetent mouse model of neuroblastoma was generated by subcutaneously injecting 1×10^6 9464D-GD2 cells in a 50:50 mixture of DMEM and Matrigel (Corning, 354234) into C57BL/6J mice (8- to 10-week-old, JAX 000664) with male and female mice represented at an equal ratio. One week following tumor cell inoculation, mice were randomized into treatment groups. Where indicated, mice were treated twice-weekly by tail-vein injection with PBS (100 μL), dinutuximab ([…] in 100 μL PBS), purified sEVs from 9464D-GD2 cells ([…] in 100 μL PBS), or the combination of dinutuximab and sEVs. Where indicated, tipifarnib (25 mg/kg) or an equivalent volume of vehicle was administered twice daily by oral gavage. Primary tumor growth was monitored by measuring tumor volume using calipers (volume=π(length*width^2)/6). At the experimental endpoint, mice were euthanized, and tumor, blood, spleen and bone marrow were harvested for ex vivo analysis. Endpoint tumor volume was calculated by measuring tumors using calipers (volume=π(length*width*height)/6).

[3] = system: tumor-infiltrating NK cells, T-cells and tumor-associated macrophages in 9464D-GD2 tumors; experiment: Flow cytometry of tumor-infiltrating immune cells (NK cells, T-cells, TAMs); type: in vivo, mouse
Protocol: (§2) Murine tumors and spleens were harvested at the experimental endpoint and mechanically disassociated. Tumors were further digested with tumor digestion buffer ([…] Collagenase Type I (Thermo Fisher, 17018029) and 2000 Units/ml DNase (Sigma-Aldrich, DN25-100MG) in HBSS buffer at room temperature for 1 hour. Dissociated tumor cells and spleen cells were passed through a 70 μm cell strainer (Falcon BD, 352350), pelleted, and washed once with PBS supplemented with 1% FBS. Red blood cells were lysed with RBC lysis buffer (0.0155 M NH4Cl, 1.2 mM NaHCO3, 0.01 mM Na2EDTA, pH 7.4 in distilled water) for 3 minutes on ice and neutralized with PBS supplemented with 10% FBS. Cells were centrifuged and resuspended in FACS buffer to obtain single cell suspensions.
as §1
For cell surface staining, approximately 1×10^6 cells were stained with pre-mixed antibody cocktail panels (Table 1) in 100 μL FACS buffer (1% FBS, 0.2% NaN3 in PBS) for 30 minutes on ice. Cells were washed twice with FACS buffer and fixed with 2% paraformaldehyde (Fisher Scientific, 50-980-487) for 15 minutes. Fixed cells were washed once with PBS and resuspended in 0.5 mL FACS buffer for flow cytometric analysis using a LSR II or Symphony flow cytometer (BD Biosciences). Compensation was performed using UltraComp eBeads™ compensation beads (Invitrogen). FlowJo™ v10 (FlowJo, LLC) software was used for data analysis.

[4] = system: NK cells (NK1.1+CD3-) in blood; experiment: Flow cytometry of blood NK cells of tumor-bearing mice; type: in vivo, mouse
Protocol: as §1, with “(volume=π(length*width*height)/6). […]” for “(volume=π(length*width*height)/6).”

[5] = system: splenic NK cells; experiment: Flow cytometry of splenic NK cell subpopulations (maturation); type: in vivo, mouse
Protocol: as §2
as §1, with “(volume=π(length*width*height)/6). […]” for “(volume=π(length*width*height)/6).”

[6] = day 24, treatment as FIG. 4D (FIG. 5A)
[7] = day 30, treatment as FIG. 1D (FIG. 3C)

Row | Molecule | cytotoxicity (cell viability) [1] | tumor growth (tumor volume over time) ([2]; dinutuximab 1.25 mg/kg and/or 9464D-GD2 sEVs 20 μg, tail vein twice weekly from one week post-inoculation, to day 30, vs PBS (FIG. 1E)) | tumor growth and weight, sEV rescue experiment ([2]; dinutuximab and/or tipifarnib with or without sEVs, day 24 (FIG. 6B-D)) | TAM population (CD11b+F4/80+) [3, 6] | tumor-infiltrating NK cells (NK1.1+CD3-) [3, 6] | tumor-infiltrating T-cells (CD3+NK1.1-) [3, 6] | tumor-associated macrophage (TAM) population (CD11b+F4/80+) ([3]; day 30, treatment as FIG. 1D (FIG. 2E bottom)) | tumor-infiltrating NK cell population (NK1.1+CD3-) ([3]; day 30, treatment as FIG. 1D (FIG. 2E top)) | level of circulating NK cells (mobilization) ([4]; day 24, treatment as FIG. 4D (FIG. 5B)) | percentage of serum (blood) NK cells, NK cell mobilization ([4]; day 30, treatment as FIG. 1D (FIG. 2F)) | percentage of mature NK cells in the spleen (CD27-CD11b+) ([5]; day 24, treatment as FIG. 4D, vs control or tipifarnib alone (FIG. 5C)) | percentage of mature splenic NK cells (CD27-CD11b+) [5, 7] | percentage of splenic NK cells with immature phenotype (CD27+CD11b-) [5, 7]
1 | Cn1cncc1[C@@](N)(c1ccc(Cl)cc1)c1ccc2c(c1)c(-c1cccc(Cl)c1)cc(=O)n2C [tipifarnib] | absence of cytotoxicity |  |  |  |  |  |  |  |  |  |  |  | 
2 | B1 |  | dramatically suppressed tumor growth | mild anti-tumor activity alone | decreasing TAMs | enhancing the mobilization of NK cells and percentages of tumor-infiltrating NK cells and T-cells | enhancing the mobilization of NK cells and percentages of tumor-infiltrating NK cells and T-cells | significantly decreased the TAM population | significantly increased the tumor-infiltrating NK cell population | enhancing the mobilization of NK cells | significant increase in the percentage of serum NK cells | significantly increased the percentage of mature NK cells in the spleen | increased the percentage of mature splenic NK cells | significantly decreased the percentage of splenic NK cells with an immature phenotype
